From paper PMC8591539 (The EMBO Journal, 2021)

Target: RBX1 (human, UniProt P62877 1-108)
Assay: cryo-EM structure

B1: DDB1- and CUL4-associated factor 1 (DCAF1), full length, wild type (natural protein)
chain: not shown
  binding result: binds
